Measured values as given in the supplement of paper PMC12042874.
± gives the uncertainty stated by the source.

Assay: amyloid nucleation score (Sup35N fusion, yeast selection) (log enrichment); library NNK2; higher = more nucleation; inactive = no reads after selection
Outline: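 The nucleation score, computed with DiMSum, is the log enrichment of output over input reads, centred on the mode score of non-aggregating sequences. Sequences with under 100 input reads were dropped. Reads were generated by Illumina sequencing of plasmid inserts from psi-negative yeast with Sup35N fused to peptides of 20 random codons, induced with 100 μM copper sulfate for 24 hours and grown 7 days at 30°C on medium lacking adenine and uracil.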

Substance	amyloid nucleation score
FFFRSHKTIILVAKG	-0.104 ± 0.2
FFFVLFGFWYKTRWSMCISK	2.31 ± 0.22
FFIYGNSHVSVIRYWTCTLT	7.391 ± 0.049
FFLLPLVRYELLSNVDAVPG	0.101 ± 0.76
FFNAR	-0.951 ± 0.62
FFRLIGDGGYCCFPCKSDVR	2.54 ± 0.077
FFSFGCGSWRTVIVTSRSL	-0.299 ± 1
FFSNIFIEASVCELGSNANV	1.03 ± 0.23
FFTAMDASRSRLKCSYAVQT	3.28 ± 0.13
FFWSLGSYILHYC	inactive
FFYHLCASVRLA	-1.11 ± 0.78
FFYRVPDITSDAGITQLLAQ	5.483 ± 0.048
FGCSVNRKILVLMFVNVISV	-0.627 ± 0.39
FGFWDLMSCTSRMGTIIRLY	inactive
FGGINIGCGQCLFVVR	8.503 ± 0.053
FGIGFGFLVHYDGRFWVYFG	inactive
FGLSRL	0.713 ± 0.74
FGMFGSSYYIMY	2.63 ± 0.093
FGMNDRRH	-0.381 ± 0.79
FGNDPSGCVNQAYYHRCFLD	-0.959 ± 0.78
FGVNDLYSDLW	-0.68 ± 0.25
FHARPDSNPEENMVDSGI	inactive
FHLEPLKWSWVST	-0.837 ± 1.1
FHLMFCGSL	-0.818 ± 0.49
FIAYMYPMVIWIPMRFLINQ	inactive

Substance	amyloid nucleation score
FICCNNSQIRVSFWLRTWYL	3.39 ± 0.048
FIDTLNYDWDIVLFWFLGEN	0.021 ± 0.51
FIICPSSDCNIRDIRRILTC	-0.967 ± 0.28
FIICTEWPSDLLNWSSVANW	-0.658 ± 1
FIIMFIRLLSW	1.12 ± 0.14
FILSQWYKGSECTTCRRLWG	-0.318 ± 0.4
FIMMDRAGSMIYSKGTRNIR	3.05 ± 0.11
FINILKSSMLSVDWSLPIFN	inactive
FINSHFHYEECPIMGKQSVL	1.63 ± 0.53
FINVLDSNLAQLWLLFTSWR	1.51 ± 0.14
FIRYS	1.79 ± 0.084
FIRYVCHNVWDICYHLEMLL	inactive
FISMGQGRPEFLWVFVDVGD	0.092 ± 1.1
FITQVHSYWDSISTVTSDIL	inactive
FIVRSLRSSHTKTVPLPACC	inactive
FKASWVVRASNKDTHIHRGG	-0.144 ± 0.49
FKDRYRTGFSDVRNQVAHSV	inactive
FKDSDVEEWLNVKIIYWGVC	-0.604 ± 0.41
FKDTWQSPGAVERKGMRTSV	0.365 ± 0.22
FKDWNKWY	inactive
FKHVLDRN	-0.343 ± 0.45
FKIVALTTVNIVLRDSWCNP	6.199 ± 0.061
FKLFSFQVLYCSFDPCMHYT	-1.33 ± 0.62
FKQLIMGYS	3.24 ± 0.075
FKSTYVHHYRVMPGSVVLLR	-1.2 ± 1.1

Substance	amyloid nucleation score
FLEQFVMSLT	-0.752 ± 0.44
FLFEN	-0.607 ± 0.64
FLFETMVIFSSSEMVWRDWC	0.192 ± 1
FLFGLSIMLLNKEPGRCFRG	5.23 ± 0.097
FLGEAHFI	0.078 ± 0.4
FLGLTDWRVDYCSEWQGFAQ	-0.199 ± 1.1
FLIFDRSKCCCVDTRGSGGT	inactive
FLIVPKILNICL	7.746 ± 0.077
FLKYSDKQHAVNVGLKVTAQ	0.094 ± 0.74
FLLDCN	2.56 ± 0.15
FLLECSWFCVYTIGFYYRNI	inactive
FLLHVCVADKVGVTSIHTCC	-0.181 ± 0.35
FLLSVGSHCMPVHEYGMTNA	0.445 ± 0.56
FLMGVPEIFFPLVVSDYMYV	inactive
FLRNWGTAWLVGFNSAKFIC	-0.955 ± 0.63
FLSRIYESLSTVI	inactive
FLSSGFCRTDFVRSIILYGP	-1.43 ± 0.55
FMEYCSVLLFCLVMARLSGS	-0.012 ± 1.1
FMITWGINRS	4.02 ± 0.043
FMLAHVYVNV	-1.01 ± 0.78
FMRMALAGPDKF	-0.738 ± 1.1
FMSFVYLHVPSANTCI	3.83 ± 0.045
FMSGRESAVCLFKNFSVLRS	2.76 ± 0.084
FMSMLSCQAKTNLPMYATHM	-0.091 ± 0.79
FMTSWTVYSSRAYLHENVGT	1.08 ± 0.37

Substance	amyloid nucleation score
FMVILSGYIVL	0.429 ± 0.66
FMVWWFTIRVPEDCYQP	-0.5 ± 0.39
FMYHSYSGRPNNHAIGKHFR	-0.405 ± 0.49
FMYWLGCYIRLLCDNLKQRG	-0.979 ± 0.49
FNAIYIKFTGRFSLTRDNRC	1.73 ± 0.21
FNDGTQKSTLACVRNKYRVY	0.633 ± 0.57
FNGVIFNGSSVNYYPFAHSF	5.035 ± 0.036
FNHYQ	0.419 ± 0.36
FNMDGYGRTGVRPFCRYVLN	0.333 ± 0.61
FNTGSSMLLLIRVMVGKFGG	-1.57 ± 1.1
FNVSYSISMMLKRGVCAHCW	6.038 ± 0.034
FNWVEWLFFSMAFKLLVESR	inactive
FPCRGLGGVLW	1.97 ± 0.14
FPGRFRGKSLEKRMVM	0.721 ± 0.46
FPIFKHDWLFYWCTPSIKGR	-1.06 ± 0.31
FPNKITVIPSHTSRDNVNTL	0.261 ± 0.49
FPRDILVS	-0.13 ± 0.76
FPYIFIWFYGSVGLWRRETL	0.127 ± 0.79
FQFRCCTM	9.232 ± 0.024
FQMYTISLRRLVNNKSYARV	0.319 ± 0.8
FQSVLCYE	-0.708 ± 0.54
FQWQLMVFSADEFQNMAHMI	0.182 ± 0.79
FQYENNVDNG	-1.75 ± 0.62
FRAFLQITLILNCGSSASDV	3.45 ± 0.11
FRCAE	3.84 ± 0.091

Substance	amyloid nucleation score
FRCLTSSANISISTVWYVGH	4.61 ± 0.09
FRDCYCRVVAPYDLHFVCTW	0.573 ± 0.15
FRGDILRFL	inactive
FRGGSCYIVVWA	6.573 ± 0.04
FRGIGWAC	0.907 ± 0.47
FRGITASYEPIGGARMSARE	-0.001 ± 0.62
FRGLYRARNGVIKRMGLGWH	0.645 ± 0.47
FRGTCYMAIVDYLCNTFEGP	1.37 ± 0.11
FRIGFVFCVSYCRECRN	0.065 ± 1.1
FRLRMRSGYSARLSRFFCPL	2.51 ± 0.077
FRMWGLC	0.43 ± 0.36
FRSVFDKFLRYVFSFDVY	-0.984 ± 0.76
FRVMQNFHQSYGHYKWVFHF	5.57 ± 0.057
FRWCKRMGLCNLVNDLGCDW	0.446 ± 0.64
FRYCAGLMTYRLEFG	2.49 ± 0.068
FSFLGDPKNERTVSWVMGHR	0.478 ± 0.32
FSFRVMRHSKKGK	inactive
FSGHILGRPFDGRSLVCMS	inactive
FSIVFGI	1.17 ± 0.15
FSKHCYIIMYDISRSKTSIF	-0.525 ± 1.1
FSMQSMSKGYVLRPLGMA	-0.098 ± 0.3
FSQGYWLLMA	0.305 ± 0.23
FSQNIVSSRVVTYKMNCNGM	3.72 ± 0.044
FSRYNVCYFRVAKGNARLPF	-0.541 ± 0.76
FSVRLMAVRQGRLTAVGKSD	0.331 ± 0.42

Substance	amyloid nucleation score
FSYLAI	-0.896 ± 0.61
FTCNACGYERSSVAYRNNPL	-0.22 ± 1.1
FTDCHWSDLLRSFVAWYDIV	0.918 ± 0.58
FTFIGGYVSYYRCIPIGILP	0.33 ± 0.74
FTLALSYITRTKSTHAC	-0.27 ± 1.1
FTLLSMNRSGFIIRVPDAV	0.035 ± 0.24
FTSLGMQLCYWHRISLCVSW	-1.05 ± 0.61
FTTPVSFSFVLRLITTPRTY	-1.29 ± 0.75
FVCGGILFLLCFLE	2.56 ± 0.12
FVFELGKWHCELFWYELCLS	inactive
FVFHWLFVSSRACILHPVVW	0.604 ± 0.3
FVFTLIWGHSSKLSESVSFL	inactive
FVHVPPILGAAVTVRAASPK	0.284 ± 1.1
FVIVNN	-0.658 ± 1
FVKYRSLGKWVLRVTGVMVD	inactive
FVQAVDVVWFGILLKVLFRS	inactive
FVRLTRIVESGYYDIFGKIK	-0.429 ± 0.39
FVSAHRYWCHMTLSAVMGLH	3.04 ± 0.12
FVSHYHTAHTVEMASSQLTN	0.503 ± 0.38
FVVESVKVNRSLACF	-0.205 ± 0.45
FVYKTGYVSSVCYGIVVVVD	-0.826 ± 0.5
FWCCANRSLVISLI	-0.907 ± 0.4
FWDRMGLNEEVFQGSLSSAW	inactive
FWQVCPLYRSSCIGSGCCIK	1.78 ± 0.17
FWRVRVFGASLFL	inactive

Substance	amyloid nucleation score
FWSSCSLEVYRGFSFAH	3 ± 0.083
FWSTTDILVGRTSHTGTVCV	0.118 ± 0.26
FYCSNSKFW	3.5 ± 0.074
FYCWTTSDMFVRTSSIESP	1.09 ± 0.59
FYCYNFFWFL	6.085 ± 0.033
FYEYTDTASAGPDETLYLRN	0.022 ± 0.63
FYFWVSDYQLGDMVNIMNLS	-0.184 ± 1.1
FYHRGMMWMYKWGMARYRVC	0.044 ± 0.44
FYIFPQAFRLWKSLS	inactive
FYIGFYSPGLCVRFKFFSAR	-1.85 ± 1.1
FYKLNGKNWSRVKVPHSWLF	inactive
FYKLVAGNLANPCANRTCYL	-0.031 ± 1
FYMPLLMYVVAVRPMSGNLV	-0.22 ± 1
FYSLQFLTILLVTFMEATYP	-0.165 ± 0.27
FYTDPALISHTVEIILVLLI	inactive
FYTYDLSFMSNYSVLRVLCS	-1.48 ± 0.62
FYVLFGSF	-2.07 ± 0.76
FYVPSS	-0.158 ± 0.63
FYVVALGYKIVLCTMFYMLE	-1.16 ± 0.31
